From patent US20250352581A1 (NEOMICS PHARMACEUTIALS, published 2025)

Target: PD-L1 expressed on target cells (K562-PDL1, A375-PDL1, A549-HLA-A2/PDL1) (UniProt Q9NZQ7 19-290, limits assumed)
Assay: cell-based or functional assay

Sequence of PD-L1 expressed on target cells (K562-PDL1, A375-PDL1, A549-HLA-A2/PDL1) (Q9NZQ7 19-290 limits assumed): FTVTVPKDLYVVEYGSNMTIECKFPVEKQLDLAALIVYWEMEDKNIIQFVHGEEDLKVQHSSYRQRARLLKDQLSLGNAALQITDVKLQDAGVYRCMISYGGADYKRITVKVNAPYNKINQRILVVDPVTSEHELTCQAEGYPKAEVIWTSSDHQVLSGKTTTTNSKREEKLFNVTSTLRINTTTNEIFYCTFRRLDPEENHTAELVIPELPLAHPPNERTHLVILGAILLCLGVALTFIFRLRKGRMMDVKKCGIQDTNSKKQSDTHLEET

B1: PD1-28-TNR9(41BBt) PD-1 chimeric co-stimulatory receptor (PD-1 extracellular domain_CD28 stalk, transmembrane and signaling domain_truncated 4-1BB signaling … (receptor)
chain: FLDSPDRPWNPPTFSPALLVVTEGDNATFTCSFSNTSESFVLNWYRMSPSNQTDKLAAFPEDRSQPGQDCRFRVTQLPNGRDFHMSVVRARRNDSGTYLCGAISLAPKAQIKESLRAELRVTERRAEVPTAHPSPSPRPALFPGPSKPFWVLVVVGGVLACYSLLVTVAFIIFWVRSKRSRLLHSDYMNMTPRRPGPTRKHYQPYAPPRDFAAYRSQPFMRPVQTTQEEDGCSCRFPEEEEGGCEL
T cell expansion (GSK-794 and 2007 TCR T cells on A375-PDL1 cells): ≥ 60 fold
